The values below come from patent US20200338209A1, “ANTI-B7-H3 ANTIBODIES AND ANTIBODY DRUG CONJUGATES” (AbbVie Inc., priority 2016, published 2020).

The target of assay [1] is T1, human B7-H3 (4Ig-B7-H3 variant) (Homo sapiens, UniProt Q5ZPR3).
T1 construct: His tag (6xHis) (C)
T1 sequence (Q5ZPR3 with tags, fused parts or gaps): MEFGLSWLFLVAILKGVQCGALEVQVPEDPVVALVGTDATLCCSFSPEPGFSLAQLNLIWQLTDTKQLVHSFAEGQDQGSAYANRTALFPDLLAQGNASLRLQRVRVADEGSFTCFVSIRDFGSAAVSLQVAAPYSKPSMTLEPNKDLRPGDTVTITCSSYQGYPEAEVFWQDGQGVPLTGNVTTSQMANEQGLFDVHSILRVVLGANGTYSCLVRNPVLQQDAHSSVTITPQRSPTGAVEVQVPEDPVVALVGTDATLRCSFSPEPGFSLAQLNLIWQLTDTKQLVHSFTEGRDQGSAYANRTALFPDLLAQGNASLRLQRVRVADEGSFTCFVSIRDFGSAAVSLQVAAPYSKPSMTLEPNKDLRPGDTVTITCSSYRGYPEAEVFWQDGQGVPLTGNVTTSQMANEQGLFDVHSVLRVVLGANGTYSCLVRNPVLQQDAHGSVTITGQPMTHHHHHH
The assay can be described thus: Biacore T200 SPR binding kinetics, mAb capture, soluble ECD of human B7-H3. The settings on record: 1:1 binding model. As to the method:
(§1) The binding affinity of the purified anti-B7-H3 monoclonal antibodies was determined by surface […]. […] The binding kinetics were derived from SPR measurements using a Biacore T200 instrument and a mAb capture approach (as described in the materials and methods below).
(§2) Biacore T200 SPR instruments were used to measure the binding kinetics of human B7-H3 (4Ig-B7-H3 variant) (analyte) binding to various mAbs (ligands). The assay format was Fc-based capture via immobilized anti-mouse (Fc) (Pierce 31170) or immobilized anti-human (Fc) (Pierce 31125). A standard amine coupling protocol was employed to immobilize the capture reagents via primary amines to the carboxy-methyl (CM) dextran surface of CM5 sensorchips (Biacore); capture antibodies were coupled to a level of approximately 5000RU. For binding kinetic measurements the assay buffer was HBS-EP+ (Biacore): 10 mM Hepes, pH7.4, 150 mM NaCl, 3 mM EDTA, 0.05% polysorbate 20. During the assay, all measurements were referenced against the capture surface alone. Each assay cycle consisted of the following steps: 1) Capture of ligand to approximately 50RU; 2) Analyte injection over both reference and test surface, 240 μL at 80 μL/min, after which the dissociation was monitored for 900 seconds at 80 μL/min; 3) Regeneration of capture surface with low pH glycine. For kinetic determinations analyte injections were 3-point, 9-fold dilution series of 900 nM, 100 nM and 11.11 nM, buffer only injections were included for secondary referencing. Data were processed and fit to a 1:1 binding model using Biacore T200 Evaluation Software to determine the binding kinetic rate constants, ka (on-rate) and kd (off-rate), and the equilibrium dissociation constant (affinity, KD).
A general note: Surface plasmon resonance follows binding to a sensor surface in real time, without labels.

Assay [2] relates to cyno B7-H3. The assay can be described thus: Biacore T200 SPR binding kinetics, mAb capture, soluble ECD of cyno B7-H3. More on the design: species or system cynomolgus monkey. The settings on record: 1:1 binding model. The procedure: [The source words this procedure for another species and reports this species under the same test.] as §1, §2
Sequence of cyno B7-H3 (as listed by the source): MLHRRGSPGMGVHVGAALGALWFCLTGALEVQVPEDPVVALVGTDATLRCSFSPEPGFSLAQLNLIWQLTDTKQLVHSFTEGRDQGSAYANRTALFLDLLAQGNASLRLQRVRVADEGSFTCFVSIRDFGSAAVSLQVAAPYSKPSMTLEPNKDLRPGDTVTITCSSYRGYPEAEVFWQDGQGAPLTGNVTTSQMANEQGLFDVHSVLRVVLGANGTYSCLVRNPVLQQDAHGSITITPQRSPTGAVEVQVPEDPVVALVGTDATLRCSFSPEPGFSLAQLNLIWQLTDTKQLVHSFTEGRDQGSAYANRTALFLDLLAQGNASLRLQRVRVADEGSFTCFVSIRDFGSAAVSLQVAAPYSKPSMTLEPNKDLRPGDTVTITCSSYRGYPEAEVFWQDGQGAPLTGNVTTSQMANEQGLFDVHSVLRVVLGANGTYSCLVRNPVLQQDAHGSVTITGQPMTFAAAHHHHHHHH

B1: Ab14: mouse hybridoma derived anti-B7-H3 monoclonal antibodies (mAbs) (antibody, V domains shown)
VH: EVKLVESGGGLVKPGGSLKLSCAASGFTFSSYGMSWVRQTPEKRLEWVATISGGGTNTYYPDSVEGRFTISRDNAKNFLYLQMSSLRSEDTALYYCARHYGSQTMDYWGQGTSVTVSS
VL: DIQMTQSPASLSASVGETVTITCRTSGNIHNYLTWYQQKQGKSPQLLVYNAKTLADGVPSRFSGSGSGTQFSLKINSLQPEDFGSYYCQHFWSIMWTFGGGTKLEIK
For the molecule B1, in assay [1], the “ka (1/Ms) huB7-H3” value was 110000 M⁻¹ s⁻¹ and the “kd (1/s) huB7-H3” value was found to be 0.0014 s⁻¹. Moreover, in assay [2], the “ka (1/Ms) cynoB7-H3” value is 690000 M⁻¹ s⁻¹ and the “kd (1/s) cynoB7-H3” value came to 0.003 s⁻¹.

B2: Ab16: mouse hybridoma derived anti-B7-H3 monoclonal antibodies (mAbs) (antibody, V domains shown)
VH: EVKLLESGGGLVQPGGSLKLSCAASGFDFSRYWMSWVRQAPGKGLEWIGEINPDSSTINYTPSLKDKFIISRDNAKNTLYLQMSKVRSEDTALYYCARPGFGNYIYAMDYWGQGTSVTVSS
VL: DIQMTQTTSSLSASLGDRVTINCRASQDISNFLNWYQQKPDGTVKLLIYYTSRLYLGVPSRFSGSGSGTDYSLTISNLEQEDIATYFCQQGNTLPPTFGGGTKLEIK
Regarding B2, in assay [1], the “ka (1/Ms) huB7-H3” value is 140000 M⁻¹ s⁻¹ and the “kd (1/s) huB7-H3” value was 0.0032 s⁻¹. In addition, in assay [2], the “ka (1/Ms) cynoB7-H3” value is 750000 M⁻¹ s⁻¹ and the “kd (1/s) cynoB7-H3” value was 0.0056 s⁻¹.

B3: Ab13: mouse hybridoma derived anti-B7-H3 monoclonal antibodies (mAbs) (antibody, V domains shown)
VH: DVQLQESGPDLVKPSQSLSLTCTVTGYSITSGYSWHWIRQFPGNKLEWMGYIHSSGSTNYNPSLKSRISINRDTSKNQFFLQLNSVTTEDTATYYCAGYDDYFEYWGQGTTLTVSS
VL: DIVMTQSQKFMSTSVGDRVSVTCKASQNVGFNVAWYQQKPGQSPKALIYSASYRYSGVPDRFTGSGSGTDFTLTISNVQSEDLAEYFCQQYNSYPFTFGSGTKLEIK
Take B3: in assay [1], the “ka (1/Ms) huB7-H3” value came to 330000 M⁻¹ s⁻¹ and the “kd (1/s) huB7-H3” value worked out at 0.0058 s⁻¹. For the same molecule, in assay [2], the “ka (1/Ms) cynoB7-H3” value turned out to be 440000 M⁻¹ s⁻¹ and the “kd (1/s) cynoB7-H3” value worked out at 0.0037 s⁻¹.

B4: Ab4: murine anti-B7-H3 mAbs; mouse hybridoma derived (antibody, V domains shown)
VH: QVQLQQPGAELVKPGASVKLSCKASGYSFTSYWMHWVKQRPGQGLEWIGMIHPNSGSNNYNEKFKSKATLTVDKSSNTAYMQLSSLTSEDSAVYYCARRLGLHFDYWGQGTTLTVSS
VL: DIVMTQSQKFMSTPVGDRVSITCKASQNVGTAVAWYQQKPGQSPKLLIYSASNRYTGVPDRFTGSGSGTDFTLTISNMQSEDLADYFCQQYSSYPYTFGGGTKLEIK
B4: in assay [1], the “ka (1/Ms) huB7-H3” value was 690000 M⁻¹ s⁻¹ and the “kd (1/s) huB7-H3” value stood at 0.0011 s⁻¹. In addition, in assay [2], the “ka (1/Ms) cynoB7-H3” value came to 540000 M⁻¹ s⁻¹ and the “kd (1/s) cynoB7-H3” value came out at 0.00096 s⁻¹.

B5: Ab8: murine anti-B7-H3 mAbs; mouse hybridoma derived (antibody, V domains shown)
VH: EVKLVESGGGLVKPGGSLKLSCAASGFTFSSYGMSWVRQTPEKRLEWVATISGGGNYTYCPDSVKGRFTISRDNAKNNLYLQMSSLRSEDTALYYCTRQRGYDYHYAMDFWGQGTSVTVSS
VL: DIQMTQSPASLSVSVGETVTITCRASENIYSNLAWHQQKQGKSPQLLVYAATNLADGVPSRFSGNGSDTQYSLKINSLQSEDFGSYFCQNFWGTSWTFGGGTKLEIK
Consider B5, for which, in assay [1], the “ka (1/Ms) huB7-H3” value was found to be 58000 M⁻¹ s⁻¹ and the “kd (1/s) huB7-H3” value was 9.9e-05 s⁻¹. Further, in assay [2], the “ka (1/Ms) cynoB7-H3” value came out at 160000 M⁻¹ s⁻¹ and the “kd (1/s) cynoB7-H3” value turned out to be 0.00026 s⁻¹.

B6: Ab12: murine anti-B7-H3 mAbs; mouse hybridoma derived (antibody, V domains shown)
VH: EVQLVESGGGLVKPGGSLKLSCAASGFTFSSYAMSWVRQTPEKRLEWVATISSGTNYTYYPDSVKGRFTISRDNAKNTLYLQMTSLRSEDTAMYYCARQGRYSWIAYWGQGTLVTVSA
VL: DIVLTQSPASLAVSLGQRATISCRASKSVSTSDYSYMHWNQQKPGQPPKLLIYLASNLESGVPARFSGSGSGTDFTLNIHPVEEEDAATYYCQHSRELLTFGAGTKLELK
Turning to B6, in assay [1], the “ka (1/Ms) huB7-H3” value worked out at 38000 M⁻¹ s⁻¹ and the “kd (1/s) huB7-H3” value came to 0.00025 s⁻¹. In assay [2], the “ka (1/Ms) cynoB7-H3” value worked out at 55000 M⁻¹ s⁻¹ and the “kd (1/s) cynoB7-H3” value is 1e-05 s⁻¹.

B7: Ab18: the murine monoclonal Ab18 (antibody, V domains shown)
VH: QVQLQQSAAELARPGASVKMSCKASGYSFTSYTIHWVKQRPGQGLEWIGYINPNSRNTDYNQKFKDETTLTADRSSSTAYMQLISLTSEDSAVYYCARYSGSTPYWYFDVWGAGTTVTVSS
VL: QIVLTQSPAILSASPGEKVTMTCRASSSVSYMNWYQQKPGSSPKPWIYATSNLASGVPARFSVSVSGTSHSLTISRVEAEDAATYYCQQWSSNPLTFGAGTKLELK
For B7, in assay [1], the “ka (1/Ms) huB7-H3” value is 210000 M⁻¹ s⁻¹ and the “kd (1/s) huB7-H3” value turned out to be 3.6e-05 s⁻¹. In addition, in assay [2], the “ka (1/Ms) cynoB7-H3” value is 240000 M⁻¹ s⁻¹ and the “kd (1/s) cynoB7-H3” value came to 2.9e-05 s⁻¹.

B8: Ab5: murine anti-B7-H3 mAbs; mouse hybridoma derived (antibody, V domains shown)
VH: QVQLQQPGDELVKPGASVKLSCKTSGYTFTTDWMHWVKQRPGQGLEWIGMIHPNSGTTNYNEKFKSKAALTVDKSSSTACMQLSSLTSEDSAVYYCARSYWKWYFDVWGTGTTVTVSS
VL: QIVLTQSPAIMSASLGEEITLTCSASSSVSYMHWYQQKSGTSPKLLIYSTSNLASGVPSRFSGSGSGTFYSLTISSVEAEDSADYYCHQWTSYMYTFGGGTKLEIK
For B8, in assay [1], the “ka (1/Ms) huB7-H3” value came to 1.3e+06 M⁻¹ s⁻¹ and the “kd (1/s) huB7-H3” value was 0.012 s⁻¹. In addition, in assay [2], the “ka (1/Ms) cynoB7-H3” value is 1.4e+06 M⁻¹ s⁻¹ and the “kd (1/s) cynoB7-H3” value was determined as 0.28 s⁻¹.

B9: Ab10: mouse hybridoma derived anti-B7-H3 monoclonal antibodies (mAbs) (antibody, V domains shown)
VH: DVQLQESGPGLVKPSQSLSLTCTVTGYSITSDYAWNWIRQFPGNRLEWMGHINYSGITNYNPSLKSRISITRDTSKNQFFLQLYSVTTEDTATYFCARRSLFYYYGSSLYAMDYWGQGTSVTVSS
VL: DVVMTQSPFSLPVSLGDQASISCRSSQSLVHSNGNTYLHWYLQKPGQSPKLLIYKVSNRFSGVPDRFSGSGSGTDFTLKISRVEAEDLGVYFCSQSTHVPWTFGGGTKLEIK
B9: in assay [1], the “ka (1/Ms) huB7-H3” value was determined as 41000 M⁻¹ s⁻¹ and the “kd (1/s) huB7-H3” value was 0.00019 s⁻¹. Moreover, in assay [2], the “ka (1/Ms) cynoB7-H3” value came out at 200000 M⁻¹ s⁻¹ and the “kd (1/s) cynoB7-H3” value is 0.0042 s⁻¹.

B10: Ab2: mouse hybridoma derived anti-B7-H3 monoclonal antibodies (mAbs) (antibody, V domains shown)
VH: QVQLQQPGAELVKPGASVKLSCKASGYTFTSYWMHWVKQRPGQGLEWIGMIHPDSGTTNYNEKFRSKATLTVDKSSSTAYMQLSSLTSEDSAVYYCAVYYGSTYWYFDVWGTGTTVTVSS
VL: DVVMTQTPLSLPVSLGDQAYISCRSSQSLVHINGNTYLHWYRQKPGQSPKLLIYKVSNRFSGVPDRFSGSGSGTDFTLKISRVEAEDLGVYFCSQSTHFPFTFGSGTKLEIK
B10: in assay [1], the “ka (1/Ms) huB7-H3” value was 120000 M⁻¹ s⁻¹ and the “kd (1/s) huB7-H3” value was 0.0029 s⁻¹. Besides, in assay [2], the “ka (1/Ms) cynoB7-H3” value is 230000 M⁻¹ s⁻¹ and the “kd (1/s) cynoB7-H3” value was found to be 0.011 s⁻¹.

B11: Ab3: murine anti-B7-H3 mAbs; mouse hybridoma derived (antibody, V domains shown)
VH: QVQLQQPGAELVKPGASVKLSCKASGYTFSSYWMHWVKQRPGQGLEWIGLIHPDSGSTNYNEMFKNKATLTVDRSSSTAYVQLSSLTSEDSAVYFCAGGGRLYFDYWGQGTTLTVSS
VL: DVVMTQTPLSLPVSLGDQASISCRSSQSLVHSNGDTYLRWYLQKPGQSPKLLIYKVSNRFSGVPDRFSGSGSGTDFTLKITRVEAEDLGVYFCSQSTHVPYTFGGGTKLEIK
With B11, in assay [1], the “ka (1/Ms) huB7-H3” value was 520000 M⁻¹ s⁻¹ and the “kd (1/s) huB7-H3” value came out at 0.01 s⁻¹. In assay [2], the “ka (1/Ms) cynoB7-H3” value worked out at 380000 M⁻¹ s⁻¹ and the “kd (1/s) cynoB7-H3” value was 0.01 s⁻¹.
